Data on 1 molecule can be found in US20250257332A1, “TRUNCATED AND FUSION PROTEINS” (Monash University, priority 2021, published 2025).

Entries after “also recorded” stand apart in the source; their conditions may differ.

Assay [1] has as its system needle-stab muscle injury in zebrafish larvae. The experiment in a line: Larval zebrafish muscle injury and EdU pulse-chase. It is filed as in vivo. Conditions: 57 nM in Ringer's solution immediately after injury at 4 dpf; EdU at 2 dpi. How it is done: Zebrafish larvae (4 dpf) were anaesthetized in 0.01% tricaine (MS-222) (Sigma-Aldrich) in Ringer's solution. Needle-stab injury was carried out in the dorsal myotome, consisting in a single 30-gauge needle puncture that generates an extensive injury with many damaged muscle fibres. Nampt fragment treatments were carried out by incubating 4 dpf needle-stab-injured larvae in 57 nM Nampt in Ringer's solution immediately after injury. Needle-stab-injured larvae at 6 dpf (2 dpi) were transferred into Ringer's solution containing 50 μg ml-1 EdU (Thermo Fisher Scientific) for 1 h and chased for a further 1.5 h before fixation. Samples were developed using the Click-iT EdU Alexa Fluor 647 imaging Kit (Thermo Fisher Scientific) following the manufacturer's protocol, followed by a phalloidin immunostaining (Thermo Fisher Scientific). EdU+ cells in a region encompassing two myotomes on either side of the injury were quantified as the number of EdU+ cells outside the injury region. EdU+ cells in the caudal haematopoietic tissue were excluded from this analysis. Statistical analysis has been conducted using Two-way ANOVA with Tuckey's multiple comparison test.

For assay [2], the system named is C2C12 murine myoblast cells. The experiment in a line: C2C12 cell proliferation, CyQuant Proliferation Assay kit. Conditions: 48 hours. In kind it is cell-based, mouse. How it is done:
FIG. 7. Human NAMPT variants stimulate muscle progenitor proliferation. C2C12 mouse myoblasts were treated with 20 nM full length NAMPT (NAMPT) or NAMPT variants for (NAMPTxxx-xxx, where xxx are amino acid numbers) 48 hours. Quantification of cell proliferation was performed using CyQuant Proliferation Assay kit. […] Box and whiskers denote median with minimum and maximum values. n=4-5 independent experiments per protein. Statistical significance is indicated as exact p-value. […] Significance between conditions were analysed by one-way ANOVA with Tukey post-hoc test.
Human NAMPTcif (hNAMPTcif) and truncated variants of hNAMPTcif were designed by progressively removing N-terminal regions containing positively charged amino acids. Four truncations were produced and numbered T1 to T4. Recombinant protein was produced using a bacterial expression system. hNAMPTcif variants were purified by FPLC using His-tag affinity purification. Cell proliferation assays were performed using C2C12 murine myoblast cells treated with purified recombinant hNAMPTcif variants, as well as full length NAMPT. Cells were treated with 10 nM of recombinant protein for 48 hours in DMEM supplemented with 2% foetal bovine serum at 37° C., 5% CO2. PBS treatment was used as a negative control. 10% foetal bovine serum was used as positive control. Quantification of proliferation was performed using commercially-available CyQuant Proliferation Assay kit (Thermo Fisher Scientific) according to manufacturer's instructions and read using a Synergy H1 plate reader (BioTek). Data were presented as percentage increase versus.
The heparin-binding sequence of placenta growth factor 2 (PIGF2) was fused to the N-terminus of NAMPTcif and produced using a bacterial expression system. PIGF-NAMPTcif was purified by FPLC using His-tag affinity purification followed by size exclusion chromatography. Cell proliferation assays were performed using C2C12 murine myoblast cells treated with purified recombinant NAMPTcif and full length NAMPT. Cells were treated with 2 nM, 10 nM and 20 nM concentrations of recombinant protein for 48 hours in DMEM supplemented with 2% foetal bovine serum at 37° C., 5% CO2. PBS treatment was used as a negative control. 10% foetal bovine serum was used as positive control. Quantification of proliferation was performed using commercially-available CyQuant Proliferation Assay kit (Thermo Fisher Scientific) according to manufacturer's instructions and read using a Synergy H1 plate reader (BioTek). Data were presented as percentage increase versus negative control. A two-tailed unpaired t-test was used to determine statistical significance.

The target of a further assay is T1, TLR4 (Homo sapiens, UniProt O00206).
T1 construct: host or cells: HEK-Blue TLR4 reporter cell line
T1 sequence (O00206 24-839): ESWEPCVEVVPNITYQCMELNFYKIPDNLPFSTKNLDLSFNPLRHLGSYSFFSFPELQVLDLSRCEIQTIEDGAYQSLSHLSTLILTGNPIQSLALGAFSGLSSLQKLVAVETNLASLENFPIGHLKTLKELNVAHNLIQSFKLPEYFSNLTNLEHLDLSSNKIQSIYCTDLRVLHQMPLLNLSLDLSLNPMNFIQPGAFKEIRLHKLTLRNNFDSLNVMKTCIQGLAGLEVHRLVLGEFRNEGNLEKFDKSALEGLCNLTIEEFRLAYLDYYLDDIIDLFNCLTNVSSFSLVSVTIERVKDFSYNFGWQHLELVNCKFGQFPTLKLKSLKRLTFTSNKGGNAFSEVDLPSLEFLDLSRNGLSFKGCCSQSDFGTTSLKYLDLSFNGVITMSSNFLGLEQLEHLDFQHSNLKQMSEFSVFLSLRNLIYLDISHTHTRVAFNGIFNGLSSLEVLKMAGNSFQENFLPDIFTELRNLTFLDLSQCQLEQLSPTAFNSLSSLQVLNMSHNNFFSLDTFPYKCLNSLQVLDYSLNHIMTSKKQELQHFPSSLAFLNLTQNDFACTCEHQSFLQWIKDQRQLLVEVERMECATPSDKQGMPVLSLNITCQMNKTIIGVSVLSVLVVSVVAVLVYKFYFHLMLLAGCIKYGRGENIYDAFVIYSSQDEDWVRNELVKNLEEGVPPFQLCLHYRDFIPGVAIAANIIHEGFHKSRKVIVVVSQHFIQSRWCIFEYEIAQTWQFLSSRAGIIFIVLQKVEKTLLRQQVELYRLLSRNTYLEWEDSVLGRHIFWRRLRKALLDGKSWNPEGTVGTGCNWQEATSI
T1 sequence (Q9Y6Y9 17-160 partner limits assumed): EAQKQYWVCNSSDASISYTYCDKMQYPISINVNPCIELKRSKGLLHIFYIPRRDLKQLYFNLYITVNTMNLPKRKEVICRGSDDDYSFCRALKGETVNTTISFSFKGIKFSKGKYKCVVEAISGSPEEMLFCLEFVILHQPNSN
Put plainly: TLR4 signalling assay in HEK-Blue TLR4 reporter cells. It is filed as cell-based. Conditions: 19 nM; 24 hours; plus 5 ug/ml polymyxin B; listed as NAMPTcif. How it is done: TLR4 receptor activation was assayed using the HEK-Blue TLR4 reporter cell line (InvivoGen). In this cell line, TLR4 and downstream NFκB signalling induces expression and secretion of alkaline phosphatase that can be quantified via colorimetric assay. HEK-Blue cells were treated for 24 hours with 19 nM of NAMPTcif or PIGF-NAMPTcif plus 5 ug/ml polymyxin B to ensure no TLR4 activation by any trace amounts of endotoxin. TLR4 activity was reported as the equivalent amount of activation by bacterial lipopolysaccharides (LPS), thus a standard curve was generated by serial dilutions of LPS from 0.01 to 20 ng/ml. Detection of alkaline phosphatase activity was performed using a QUANTI-Blue kit (InvivoGen) according to manufacturer's instructions and plates were read using a Synergy H1 plate reader (BioTek). Data were presented as equivalent LPS concentration in ng/ml. A one-way ANOVA with Dunnett's multiple comparisons test was performed to determine statistical significance.

For assay [3], the system named is Human primary satellite cells. Put plainly: Human primary satellite cell proliferation, CyQuant. It is filed as cell-based. Conditions: 20 nM; 48 hours; media with IGF-1 and FGF-2. How it is done: (§1) FIG. 8. Human NAMPT variants stimulate human satellite cell proliferation. Human primary satellite cells were treated with 20 nM full length NAMPT (NAMPT) or NAMPT variants (NAMPTxxx-xxx, where xxx are amino acid numbers) for 48 hours. The media contained the growth factors IGF-1 and FGF-2 as well. Quantification of cell proliferation was performed using CyQuant Proliferation Assay kit. […] Treatment with 20% FBS was used as a positive control. Box and whiskers denote median with minimum and maximum values. n=6-10 independent experiments per protein. Statistical significance is indicated as p-value and determined by one-sample t-test.
The inventors next sought to compare the activity of full length NAMPT, NAMPT402-491 and NAMPT422-491 on human satellite cell proliferation. Human primary satellite cells were treated with 20 nM full length NAMPT (NAMPT) or NAMPT402-491 and NAMPT422-491 for 48 hours.

Assay [4] relates to Human primary endothelial cells derived from umbilical vein. Put plainly: Human primary endothelial cell proliferation, CyQuant. In kind it is cell-based. Conditions: 20 nM; 48 hours. The method, then: as §1, with “9.” for “8.”, “endothelial” for “satellite”, “cells derived from umbilical vein” for “cells”, “hours.” for “hours. The media contained the growth factors IGF-1 and FGF-2 as well.”, “10%” for “20%”, “n=6” for “n=6-10”
Similarly, the inventors next investigated the activity of full length NAMPT, NAMPT402-491 and NAMPT422-491 on human endothelial cell proliferation. Human endothelial cells were derived from umbilical vein and treated with 20 nM full length NAMPT (NAMPT) or NAMPT variants for 48 hours.

The target in another assay is T2, recombinant mouse CCR5 (Mus musculus, UniProt P51682).
T2 construct: purchased MyBioSource
T2 sequence (P51682 whole entry): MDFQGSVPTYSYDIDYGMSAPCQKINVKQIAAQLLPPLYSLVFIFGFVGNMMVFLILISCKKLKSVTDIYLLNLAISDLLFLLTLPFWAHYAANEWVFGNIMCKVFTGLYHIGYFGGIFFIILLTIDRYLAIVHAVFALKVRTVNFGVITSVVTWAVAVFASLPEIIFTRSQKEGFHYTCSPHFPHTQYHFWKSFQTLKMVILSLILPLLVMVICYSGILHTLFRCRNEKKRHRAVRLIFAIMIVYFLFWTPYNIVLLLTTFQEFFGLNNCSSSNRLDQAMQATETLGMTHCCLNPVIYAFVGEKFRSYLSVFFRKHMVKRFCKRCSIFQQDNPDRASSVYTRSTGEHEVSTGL
Put plainly: NAMPT competitive binding to CCR5 (ELISA). How it is done: hrNAMPT competitive binding to mrCCR5: ELISA plates (Medium binding, Greiner Bio-One) were coated with 1% BSA or 20 nM of recombinant mouse CCR5 (MyBioSource) in PBS overnight at 4° C. Then, wells were blocked for 1 h at room temperature with 1% BSA in PBS containing 0.05% Tween-20 (PBS-T). Wells were washed 3 times with PBS-T and further incubated with hNAMPTcif at increasing concentration (0 nM to 100 nM) for 1 h in PBS-T with 0.1% BSA containing 100 nM hrNAMPT (1) (Peprotech). Bound hrNAMPT (1) molecules were detected using a biotinylated antibody for NAMPT and HRP-streptavidin (Human PBEF/Visfatin DuoSet ELISA, R&D Systems). Signals obtained on BSA-coated wells were used to remove non-specific binding for each hrNAMPT concentrations to obtain specific binding values. Specific binding data were fitted by non-linear regression with Prism 7 to obtain the half maximal inhibitory concentration (IC50) of hNAMPTnif using A450nm=A450nmMin+(A450nmMax−A450nmMin)/(1+10^(X-LogIC50)).

B1: NAMPT402-491: Human NAMPT cytokine finger, residues 402-491 of full length NAMPT, SEQ ID NO: 1 (protein, listed as Homo sapiens)
chain: SYVVTNGLGINVFKDPVADPNKRSKKGRLSLHRTPAGNFVTLEEGKGDLEEYGQDLLHTVFKNGKVTKSYSFDEIRKNAQLNIELEAAHH
B1: the “cell proliferation (EdU-positive cells) within the injury zone” value in assay [1] is given as “significant increase in cell proliferation within the injury zone”. Besides, the “cell proliferation, percentage increase vs PBS-treated control” value in assay [2] (10 nM, compared with full length NAMPT, listed as cif) is on record as “stimulates satellite cell proliferation in a dose-dependent manner”; in assay [2] (10 nM, compared with full length NAMPT, listed as hNAMPTcif) it was “enhanced stimulated satellite cell proliferation compared to full length hNAMPT”; in assay [2] (20 nM, compared with full-length NAMPT), “enhanced cellular proliferation compared to full-length NAMPT”. The “TLR4 activation (equivalent LPS concentration)” value with TLR4 is recorded as “does not induce TLR4 activity compared to full length NAMPT; also recorded: abrogated TLR4 activity”. In addition, the “satellite cell proliferation, percentage increase vs PBS-treated control” value in assay [3] is listed as “increased satellite cell proliferation compared to full length NAMPT”. In addition, in assay [4], the “endothelial cell proliferation, percentage increase vs PBS-treated control” value is “increased endothelial cell proliferation compared to full length NAMPT and NAMPT422-491”. Also, the “inhibition of NAMPT binding to CCR5” value with recombinant mouse CCR5 is on record as “inhibits the binding of NAMPT to CCR5”.
